B1: DDX21 DEAD domain (aa 217-396) (domain or fragment)
chain: FHHVYSGKDLIAQARTGTGKTFSFAIPLIEKLHGELQDRKRGRAPQVLVLAPTRELANQVSKDFSDITKKLSVACFYGGTPYGGQFERMRNGIDILVGTPGRIKDHIQNGKLDLTKLKHVVLDEVDQMLDMGFADQVEEILSVAYKKDSEDNPQTLLFSATCPHWVFNVAKKYMKSTYEQ
B2: DDX21(183-620) (domain or fragment)
chain: QKEGAFSNFPISEETIKLLKGRGVTFLFPIQAKTFHHVYSGKDLIAQARTGTGKTFSFAIPLIEKLHGELQDRKRGRAPQVLVLAPTRELANQVSKDFSDITKKLSVACFYGGTPYGGQFERMRNGIDILVGTPGRIKDHIQNGKLDLTKLKHVVLDEVDQMLDMGFADQVEEILSVAYKKDSEDNPQTLLFSATCPHWVFNVAKKYMKSTYEQVDLIGKKTQKTAITVEHLAIKCHWTQRAAVIGDVIRVYSGHQGRTIIFCETKKEAQELSQNSAIKQDAQSLHGDIPQKQREITLKGFRNGSFGVLVATNVAARGLDIPEVDLVIQSSPPKDVESYIHRSGRTGRAGRTGVCICFYQHKEEYQLVQVEQKAGIKFKRIGVPSATEIIKASSKDAIRLLDSVPPTAISHFKQSAEKLIEEKGAVEALAAALAHISG
B3: DDX21 (enzyme)
chain: MPGKLRSDAGLESDTAMKKGETLRKQTEEKEKKEKPKSDKTEEIAEEEETVFPKAKQVKKKAEPSEVDMNSPKSKKAKKKEEPSQNDISPKTKSLRKKKEPIEKKVVSSKTKKVTKNEEPSEEEIDAPKPKKMKKEKEMNGETREKSPKLKNGFPHPEPDCNPSEAASEESNSEIEQEIPVEQKEGAFSNFPISEETIKLLKGRGVTFLFPIQAKTFHHVYSGKDLIAQARTGTGKTFSFAIPLIEKLHGELQDRKRGRAPQVLVLAPTRELANQVSKDFSDITKKLSVACFYGGTPYGGQFERMRNGIDILVGTPGRIKDHIQNGKLDLTKLKHVVLDEVDQMLDMGFADQVEEILSVAYKKDSEDNPQTLLFSATCPHWVFNVAKKYMKSTYEQVDLIGKKTQKTAITVEHLAIKCHWTQRAAVIGDVIRVYSGHQGRTIIFCETKKEAQELSQNSAIKQDAQSLHGDIPQKQREITLKGFRNGSFGVLVATNVAARGLDIPEVDLVIQSSPPKDVESYIHRSGRTGRAGRTGVCICFYQHKEEYQLVQVEQKAGIKFKRIGVPSATEIIKASSKDAIRLLDSVPPTAISHFKQSAEKLIEEKGAVEALAAALAHISGATSVDQRSLINSNVGFVTMILQCSIEMPNISYAWKELKEQLGEEIDSKVKGMVFLKGKLGVCFDVPTASVTEIQEKWHDSRRWQLSVATEQPELEGPREGYGGFRGQREGSRGFRGQRDGNRRFRGQREGSRGPRGQRSGGGNKSNRSQNKGQKRSFSKAFGQ
B4: DDX1 (enzyme)
chain: MAAFSEMGVMPEIAQAVEEMDWLLPTDIQAESIPLILGGGDVLMAAETGSGKTGAFSIPVIQIVYETLKDQQEGKKGKTTIKTGASVLNKWQMNPYDRGSAFAIGSDGLCCQSREVKEWHGCRATKGLMKGKHYYEVSCHDQGLCRVGWSTMQASLDLGTDKFGFGFGGTGKKSHNKQFDNYGEEFTMHDTIGCYLDIDKGHVKFSKNGKDLGLAFEIPPHMKNQALFPACVLKNAELKFNFGEEEFKFPPKDGFVALSKAPDGYIVKSQHSGNAQVTQTKFLPNAPKALIVEPSRELAEQTLNNIKQFKKYIDNPKLRELLIIGGVAARDQLSVLENGVDIVVGTPGRLDDLVSTGKLNLSQVRFLVLDEADGLLSQGYSDFINRMHNQIPQVTSDGKRLQVIVCSATLHSFDVKKLSEKIMHFPTWVDLKGEDSVPDTVHHVVVPVNPKTDRLWERLGKSHIRTDDVHAKDNTRPGANSPEMWSEAIKILKGEYAVRAIKEHKMDQAIIFCRTKIDCDNLEQYFIQQGGGPDKKGHQFSCVCLHGDRKPHERKQNLERFKKGDVRFLICTDVAARGIDIHGVPYVINVTLPDEKQNYVHRIGRVGRAERMGLAISLVATEKEKVWYHVCSSRGKGCYNTRLKEDGGCTIWYNEMQLLSEIEEHLNCTISQVEPDIKVPVDEFDGKVTYGQKRAAGGGSYKGHVDILAPTVQELAALEKEAQTSFLHLGYLPNQLFRTF

Legend:
[1] = target: Rev (Human immunodeficiency virus 1) (UniProt P04325); assay: fluorescence binding; settings: cited from earlier work
[2] = target: Rev WT, labelled with Alexa 555 (HIV-1) (UniProt P04616); assay: fluorescence polarisation
DDX21 = assay: EMSA

| Molecule | Kd [2] [nM] | further results |
| --- | --- | --- |
| DDX1 DEAD domain (from UniProt Q92499) |  | Kd [1]: 79 nM |
| DDX3 (from UniProt O00571 1-662) (enzyme) | 122 |  |
| DDX3 DEAD domain (aa 211-403) (from UniProt O00571 211-403) (domain or fragment) | 200 |  |
| RRE RNA (EMSA) |  | Kd (DDX21): 37 nM |
| B1 | 60 |  |
| B2 | 48 |  |
| B3 | 21 |  |
| B4 | 41 |  |

Reference: publication PMC5762417
